Measurements taken from paper PMC11323569 (mBio, 2024).

Assays:
[1] = molecular target: PrgKEC, extracytoplasmic region of PrgK (residues 273-871) (Enterococcus faecalis (plasmid pCF10)) (UniProt Q5G3P4); test: […], pH 5.0, 100 mM NaCl; […]
non-reducing SDS-PAGE = molecular target: the molecule itself; test: non-reducing SDS-PAGE
[2] = molecular target: the molecule itself; test: […], pH 5.0, 100 mM NaCl; […]

Molecule | binding result (non-reducing SDS-PAGE) | also measured
PrgL_(32-208), extracellular domain of PrgL (domain or fragment) |  | stoichiometry N (PrgL32-208 per PrgKEC (1:1)) [1]: 1
PrgK_(SLT-CHAP) (residues 530-871) (domain or fragment) LLGSADFSPGASVEKRAQAVYDYLSKKGYTKEGISAILGNFSVESGINPKRAEGDYLNPPVGAHGNSWDEPSWLSMGGPQIYGGRFPNILHRGLGLGQWTDTADGGRRHTLLLDYAKGKNKKWYDLQLQLDFIFDGDAPGSRTAADNVARSKVAATIPELTTYFLTVWEGNPGDKLGERIQAAQNWFTFFSRSGTPIGGSGSEVFAQYKEKMQPLPTDRETKAGQGWPGNAYAPGNCTWYVFNRFAQLGKSIHPTMGNANQWVHNYSQTPGATLESAPKKGDAVIFTNGVAGSSTQYGHVAYVEHVNSDGSFVISEMNVSGEYSMNWRVLKKEAGEYFMRLN | binds | 
PrgK_(CHAP) (residues 723-871) (domain or fragment, also called CHAP domain; source: E. coli BL21(DE3), purified (IMAC fractions)) GTPIGGSGSEVFAQYKEKMQPLPTDRETKAGQGWPGNAYAPGNCTWYVFNRFAQLGKSIHPTMGNANQWVHNYSQTPGATLESAPKKGDAVIFTNGVAGSSTQYGHVAYVEHVNSDGSFVISEMNVSGEYSMNWRVLKKEAGEYFMRLN | binds | 
PrgKEC, extracytoplasmic region of PrgK (residues 273-871) (domain or fragment, also called PrgKEC wild type; extracellular domain of PrgK; source: E. coli BL21(DE3), purified (Ni-NTA, PreScission elution, Superdex-200 SEC)) ASSTQKPAIVQEEEDLTASWTYFTKLDAQHTDDNNLFYSNIDEVLFYMNYRYDDFKLLDMDSTGTKNFETILSELWTALNGKKPDYQLKTMQSLETDKKSSYFIEEEQAKHYQEIKKELGYQTLDDLLSFPVKTDALIVNKRYGYDKSKEKLTLYQGIDVLIEDNQPFHSPMNGQIVSVPDTETLVIEKEKVARLTIRGVNTLRLTKGMDVEEGTFLGNTKNSTVTFQYEKYKKETKDWFFVNPAFYFPRVTYTQTTLLGSADFSPGASVEKRAQAVYDYLSKKGYTKEGISAILGNFSVESGINPKRAEGDYLNPPVGAHGNSWDEPSWLSMGGPQIYGGRFPNILHRGLGLGQWTDTADGGRRHTLLLDYAKGKNKKWYDLQLQLDFIFDGDAPGSRTAADNVARSKVAATIPELTTYFLTVWEGNPGDKLGERIQAAQNWFTFFSRSGTPIGGSGSEVFAQYKEKMQPLPTDRETKAGQGWPGNAYAPGNCTWYVFNRFAQLGKSIHPTMGNANQWVHNYSQTPGATLESAPKKGDAVIFTNGVAGSSTQYGHVAYVEHVNSDGSFVISEMNVSGEYSMNWRVLKKEAGEYFMRLN |  | stoichiometry N [2]: 2 chains in the oligomer (dimer)
